Data from patent US20020058247A1 (TRIPEP, published 2002).

B1: VKPGASVKLSCKASGYIFTS (SEQ. ID. No. 5) (peptide)
peptide: VKPGASVKLSCKASGYIFTS
notes: also called Peptide # 2; Pept. #2
B2: LAVSLGQRATISCRASQSVS (SEQ. ID. No. 16) (peptide)
peptide: LAVSLGQRATISCRASQSVS
B3: ISCRASQSVSTSSYSYMHWY (SEQ. ID. No. 17) (peptide)
peptide: ISCRASQSVSTSSYSYMHWY
B4: CKASGYSFTGYNMNWVKQSH (SEQ. ID. No. 29) (peptide)
peptide: CKASGYSFTGYNMNWVKQSH
notes: also called Peptide # 26
B5: VKPGASVKISCKASGYSFTG (SEQ. ID. No. 28) (peptide)
peptide: VKPGASVKISCKASGYSFTG
notes: also called Peptide # 25

Key:
[1] = target: T1, Full length recombinant HBcAg (rHBcAg) encompassing residues 1-183 (hepatitis B virus, UniProt P03146 1-183); test: competition EIA, HBcAg coated 5 ug/ml, peptide 25 ug/ml together with mAb 4-2 (competitor); OD of bound mAb
T1 construct: range 1-183; also called hepatitis B virus core antigen

[2] = target: T1, Full length recombinant HBcAg (rHBcAg) …; test: EIA, support-bound peptide, HBcAg 2.5 ug/ml
[3] = target: T1, Full length recombinant HBcAg (rHBcAg) …; test: competition EIA, HBcAg coated 1 ug/ml, peptide 50 ug/ml before mAb 4-2 (competitor); OD of bound mAb
[4] = target: T2, truncated recombinant form of HBeAg containing nine residues of pre-core and the 150 first residues of HBcAg (hepatitis B virus, UniProt P03146 1-150); test: EIA, support-bound peptide, HBeAg 5 ug/ml
T2 construct: domain: nine residues of pre-core;range 1-150; also called hepatitis B virus e antigen

[5] = target: T1, Full length recombinant HBcAg (rHBcAg) …; test: competition EIA, HBcAg coated 1 ug/ml, peptide 100 ug/ml before mAb 4-2 (competitor); OD of bound mAb
[6] = target: T1, Full length recombinant HBcAg (rHBcAg) …; test: EIA, support-bound peptide, HBcAg 2 ug/well
[7] = target: T1, Full length recombinant HBcAg (rHBcAg) …; test: EIA, peptide coated 100 ug/ml, HBcAg 10 ug/ml
[8] = target: T3, non-structural 3 protein (NS3) of the hepatitis C virus (HCV) (hepatitis C virus); test: EIA, support-bound peptide, HCV NS3 control
T3 construct: Control antigen; also called HCV NS3

[9] = target: T1, Full length recombinant HBcAg (rHBcAg) …; test: competition EIA, HBcAg coated 1 ug/ml, peptide 12.5 ug/ml before mAb 4-2 (competitor); OD of bound mAb
[10] = target: T2, truncated recombinant form of HBeAg …; test: EIA, support-bound peptide, HBeAg 20 ug/ml
[11] = target: T1, Full length recombinant HBcAg (rHBcAg) …; test: competition EIA, HBcAg coated 5 ug/ml, peptide 6.25 ug/ml together with mAb 4-2 (competitor); OD of bound mAb
[12] = target: T1, Full length recombinant HBcAg (rHBcAg) …; test: EIA, peptide coated 12.5 ug/ml, HBcAg 10 ug/ml
[13] = target: T1, Full length recombinant HBcAg (rHBcAg) …; test: competition EIA, HBcAg coated 1 ug/ml, peptide 200 ug/ml before mAb 4-2 (competitor); OD of bound mAb
[14] = target: T2, truncated recombinant form of HBeAg …; test: EIA, support-bound peptide, HBeAg 10 ug/ml
[15] = target: T1, Full length recombinant HBcAg (rHBcAg) …; test: competition EIA, HBcAg coated 5 ug/ml, peptide 50 ug/ml together with mAb 4-2 (competitor); OD of bound mAb
[16] = target: T1, Full length recombinant HBcAg (rHBcAg) …; test: EIA, peptide coated 6.25 ug/ml, HBcAg 10 ug/ml
[17] = target: T1, Full length recombinant HBcAg (rHBcAg) …; test: competition EIA, HBcAg coated 5 ug/ml, peptide 100 ug/ml together with mAb 4-2 (competitor); OD of bound mAb
[18] = target: T1, Full length recombinant HBcAg (rHBcAg) …; test: EIA, support-bound peptide, HBcAg 10 ug/ml
[19] = target: T1, Full length recombinant HBcAg (rHBcAg) …; test: EIA, support-bound peptide, HBcAg 20 ug/ml
[20] = target: T1, Full length recombinant HBcAg (rHBcAg) …; test: EIA, support-bound peptide, HBcAg 0.2 ug/well
[21] = target: T1, Full length recombinant HBcAg (rHBcAg) …; test: competition EIA, HBcAg coated 1 ug/ml, peptide 25 ug/ml before mAb 4-2 (competitor); OD of bound mAb
[22] = target: T1, Full length recombinant HBcAg (rHBcAg) …; test: EIA, support-bound peptide, HBcAg 5 ug/ml
[23] = target: T1, Full length recombinant HBcAg (rHBcAg) …; test: competition EIA, HBcAg coated 5 ug/ml, peptide 12.5 ug/ml together with mAb 4-2 (competitor); OD of bound mAb

T1 sequence (P03146 whole entry, the tested form may be a part): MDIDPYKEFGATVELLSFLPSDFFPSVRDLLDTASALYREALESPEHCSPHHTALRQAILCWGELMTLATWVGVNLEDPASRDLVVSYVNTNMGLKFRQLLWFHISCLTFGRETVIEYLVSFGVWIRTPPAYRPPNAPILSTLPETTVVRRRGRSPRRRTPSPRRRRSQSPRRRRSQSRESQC
T2 sequence (P03146 1-150): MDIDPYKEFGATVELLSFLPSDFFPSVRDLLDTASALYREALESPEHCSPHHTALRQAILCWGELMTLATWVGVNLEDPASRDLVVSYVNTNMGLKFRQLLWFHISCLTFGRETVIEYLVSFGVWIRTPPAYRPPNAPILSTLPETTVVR

Row | Binder | OD at 490 nm [1] [OD] | OD [2] [OD] | OD at 490 nm [3] [OD] | OD [4] [OD] | OD at 490 nm [5] [OD] | OD at 405 nm [6] [OD] | OD [7] [OD] | OD at 405 nm [8] [OD] | OD at 490 nm [9] [OD] | OD [10] [OD] | OD at 490 nm [11] [OD] | OD [12] [OD] | OD at 490 nm [13] [OD] | OD [14] [OD] | OD at 490 nm [15] [OD] | OD [16] [OD] | OD at 490 nm [17] [OD] | OD [18] [OD] | OD [19] [OD] | OD at 405 nm [20] [OD] | other results
1 | B1 | 0.698 | 0.374 | 0.188 | 0.096 | 0.083 | 3.69 | 1.45 | 0.269 | 0.331 | 0.751 | 0.867 | 0.913 | 0.078 | 0.222 | 0.395 | 0.597 | 0.194 | 1.69 | 3.45 | 1.15 | OD at 490 nm [21]: 0.341 OD; OD [22]: 0.989 OD; OD at 490 nm [23]: 0.824 OD
2 | B2 | 1.03 | 0.195 | 0.364 | 0.038 | 0.345 | 3.11 | 0.9 | 0.128 | 0.365 | 0.393 | 0.979 | 0.24 | 0.299 | 0.06 | 0.998 | 0.388 | 0.891 | 0.872 | 2.63 | 0.807 | OD at 490 nm [21]: 0.429 OD; OD [22]: 0.501 OD; OD at 490 nm [23]: 1.04 OD
3 | B3 | 1.39 | 0.252 | 0.402 | 0.132 | 0.37 | 2.48 | 0.641 | 0.156 | 0.38 | 0.687 | 1.26 | 0.514 | 0.305 | 0.246 | 1.56 | 0.63 | 1.46 | 1.15 | 2.66 | 0.449 | OD at 490 nm [21]: 0.439 OD; OD [22]: 0.633 OD; OD at 490 nm [23]: 1.44 OD
4 | B4 | 1.35 | 0.101 | 0.337 | 0.091 | 0.28 | 2.29 | 0.422 | 0.053 | 0.357 | 0.241 | 1.2 | 0.179 | 0.201 | 0.091 | 1.25 | 0.156 | 0.947 | 0.601 | 1.48 | 0.356 | OD at 490 nm [21]: 0.383 OD; OD [22]: 0.245 OD; OD at 490 nm [23]: 1.27 OD
5 | B5 | 1.2 | 0.159 | 0.312 | 0.05 | 0.274 | 3.13 | 1.01 | 0.097 | 0.339 | 0.319 | 1.18 | 0.423 | 0.173 | 0.096 | 1.22 | 0.298 | 0.91 | 0.897 | 2.65 | 0.845 | OD at 490 nm [21]: 0.359 OD; OD [22]: 0.359 OD; OD at 490 nm [23]: 1.21 OD
